Assays:
[1] = molecular target: T1, TrkA (Homo sapiens, UniProt P04629); experiment: In vitro association of SHP with baculovirus-expressed TrkA; assay type: binding; conditions: autophosphorylated TrkA, insect cells
T1 construct: expressed in transfected cells; host or cells: Sf9 insect cells infected with recombinant baculoviruses
Description: (§1) FIG. 7 is a Western blot showing that SHP-1 associates with baculovirus-expressed TrkA, TrkB and TrkC. TrkA, B and C were activated and autophosphorylated in vitro, incubated with PC12 cell lysates, fractionated by electrophoresis, and probed with anti-SHP-1 (bottom panel), and anti-pan Trk antibodies (upper panel).
Wild-type and mutant TrkA receptors expressed in Sf9 cells were autophosphorylated, incubated with PC12 lysates and immunoblotted with anti-SHP-2.
The in vitro association assay using baculovirus-expressed proteins was performed as described (Kaplan et al., supra). Briefly, Sf9 cells (2×10^6) were infected, harvested, and lysed in NP-40 lysis buffer. Trk proteins were immunoprecipitated with anti-Trk (203) antibody, and the immunoprecipitates were washed once with lysis buffer containing 1% deoxycholate and 0.1% SDS (RIPA), and three times with 50 mM Tris (pH 7.4). Trks then were activated (i.e. autophosphorylated) by incubation with 50 mM Tris (pH 7.4), 5 mM Mn Cl2, 1 mM ATP and 200 μM orthovanadate. Trk proteins then were washed twice with NP40 lysis buffer and were resuspended in 1 ml of PC12 cell lysate. The immunoprecipitated, activated Trk complexes were incubated with the cell lysate for 3 hr at 4° C., and then washed three times with NP-40 lysis buffer and once with 10 mM Tris (pH 7.4) before immunoblot analysis. […]

[2] = molecular target: T2, Trk (Homo sapiens, UniProt P04629); experiment: In vitro dephosphorylation of autophosphorylated 32P-labeled Trk by partially purified SHP; assay type: biochemical; conditions: 20 minutes at 30° C.
T2 construct: made in house; host or cells: Sf9 insect cells (recombinant baculovirus)
T2 sequence (P04629 33-790 isoform P04629-2 limits assumed): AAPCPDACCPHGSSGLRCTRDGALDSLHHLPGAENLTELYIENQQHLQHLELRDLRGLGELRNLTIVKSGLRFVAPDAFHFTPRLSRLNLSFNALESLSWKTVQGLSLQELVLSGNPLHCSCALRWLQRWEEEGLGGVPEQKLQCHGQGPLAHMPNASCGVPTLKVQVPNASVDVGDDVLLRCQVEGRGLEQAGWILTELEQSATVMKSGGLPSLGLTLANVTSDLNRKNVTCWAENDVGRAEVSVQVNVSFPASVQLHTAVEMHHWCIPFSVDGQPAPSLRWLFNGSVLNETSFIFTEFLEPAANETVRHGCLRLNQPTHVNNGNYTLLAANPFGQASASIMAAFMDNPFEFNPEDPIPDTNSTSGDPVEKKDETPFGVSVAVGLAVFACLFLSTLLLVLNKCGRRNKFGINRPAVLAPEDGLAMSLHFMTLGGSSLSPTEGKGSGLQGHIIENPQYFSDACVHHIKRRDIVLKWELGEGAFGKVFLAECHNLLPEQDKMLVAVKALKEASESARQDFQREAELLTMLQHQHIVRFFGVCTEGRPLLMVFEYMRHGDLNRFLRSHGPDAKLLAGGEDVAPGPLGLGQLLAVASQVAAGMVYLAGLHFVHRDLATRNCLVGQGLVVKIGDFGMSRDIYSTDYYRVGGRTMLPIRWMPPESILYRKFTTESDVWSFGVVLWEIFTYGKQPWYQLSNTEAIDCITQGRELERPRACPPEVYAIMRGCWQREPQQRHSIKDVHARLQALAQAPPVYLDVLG
Description: FIG. 10 is an autoradiogram showing that SHP-1 and SHP-2 dephosphorylate Trk in vitro. Trk, SHP-1 and SHP-2 were expressed in Sf9 insect cells and isolated by immunoprecipitation with anti-Trk, anti-SHP-1 or anti-SHP-2 antibody. Immunoprecipitated Trk was autophosphorylated with [y-^32P]ATP and then was incubated with partially purified SHP-1 or SHP-2. Trk phosphorylation levels then were analyzed by SDS/PAGE and autoradiography.
We hypothesized that the suppressive effects of SHP upon NGF-mediated survival might be due to dephosphorylation of the autophosphorylated Trk receptor. Given that SHP-1 can bind to activated Trk and that SHP-2 is activated by Trk (see Example II), we sought to determine whether the SHPs could dephosphorylate TrkA in vitro and in vivo. Trk, SHP-1, and SHP-2 were expressed in Sf9 cells and isolated by immunoprecipitation with anti-Trk, anti-SHP-1, or anti-SHP-2 antibodies. Immunoprecipitated Trk was autophosphorylated by incubating with 10 mM MnCl2, 20 mM Tris pH 7.4 and 2.0 μCi/ml [γ-^32P]-ATP(3000 Ci/mmol) for 30 minutes at room temperature. Activated, radiolabeled Trk then was incubated with partially purified SHP-1 or SHP-2 for 20 minutes at 30° C. In vitro, both SHP-1 and SHP-2 are able to dephosphorylate Trk to a similar extent (FIG. 10) i.e., approximately 5-fold dephosphorylation. […]

[3] = molecular target: T1, TrkA; experiment: Trk dephosphorylation on coexpression with SHP in Sf9 insect cells; assay type: cell-based; conditions: wild-type TrkA coexpressed in insect cells; for dephosphorylation of Trk at the 674/675 sites: phospho-specific anti-Trk antibodies
Description: (§2) FIG. 11 is a Western blot showing that Y490 and Y785 of TrkA are not required for SHP-1 and SHP-2-mediated dephosphorylation of TrkA in vivo. Lysates of Sf9 insect cells coexpressing SHP-1 or SHP-2 wild-type and mutant TrkAs, as indicated, were immunoprecipitated with anti-Trk and probed with anti-pTyr antibody (upper panel) to determine TrkA phosphorylation levels.
(§3) FIG. 12 is a Western blot showing that Y674/Y675 of TrkA are targets of SHP-1 and SHP-2-mediated dephosphorylation. Lysates of Sf9 insect cells co-expressing SHP-1 or SHP-2 and wild-type TrkA using antibodies that specifically recognize these phosphorylated residues. Blots were probed with anti-pan Trk (C,D), anti-SHP-1 (E,F), or anti-SHP2 (G,H) antibodies.
(§4) Sf9 insect cells (2×10^6) were infected with recombinant baculoviruses at a multiplicity of infection of 1 to 10 and lysed at 48 hr postinfection. Sf9 cells were assayed for the expression of the recombinant proteins by immunoblot analysis, as described above. Recombinant baculoviruses were prepared as previously described (Stephens et al., Neuron, 12:691-705, (1994).
(§5) We hypothesized that the suppressive effects of SHP upon NGF-mediated survival might be due to dephosphorylation of the autophosphorylated Trk receptor. Given that SHP-1 can bind to activated Trk and that SHP-2 is activated by Trk (see Example II), we sought to determine whether the SHPs could dephosphorylate TrkA in vitro and in vivo. Trk, SHP-1, and SHP-2 were expressed in Sf9 cells and isolated by immunoprecipitation with anti-Trk, anti-SHP-1, or anti-SHP-2 antibodies. Immunoprecipitated Trk was autophosphorylated by incubating with 10 mM MnCl2, 20 mM Tris pH 7.4 and 2.0 μCi/ml [γ-^32P]-ATP(3000 Ci/mmol) for 30 minutes at room temperature. Activated, radiolabeled Trk then was incubated with partially purified SHP-1 or SHP-2 for 20 minutes at 30° C. In vitro, both SHP-1 and SHP-2 are able to dephosphorylate Trk to a similar extent (FIG. 10) i.e., approximately 5-fold dephosphorylation. Moreover, coexpression of Trk with SHP-1 or SHP-2 in insect cells results in Trk dephosphorylation. In vivo, both SHP-1 and SHP-2 reduce Trk tyrosine phosphorylation, even when the receptors lack tyrosine 490 (Y490F) and/or tyrosine 785 (Y785F) (FIGS. 11 and 12).
(§6) In order to map the sites of dephosphorylation two approaches were taken. First, we asked whether Trks mutated at tyrosines 490 and 785 could be dephosphorylated by SHP-1 or SHP-2 when coexpressed in insect cells (FIG. 11). SHP-1 extensively dephosphorylates (about 8-fold) all of the Trks, both wild-type and mutated, whereas SHP-2 causes a more modest dephosphorylation (about 2-fold). […] To determine whether the two other major tyrosine phosphorylation sites in Trk, Y674 and 675, are substrates of the SHPs, wild-type TrkA and the SHPs were coexpressed in insect cells, and Trk phosphorylation at Y674, Y675 and Y490 was assessed using phospho-specific anti-Trk antibodies directed at tyrosines 674/675 and 490. SHP-1 completely dephosphorylates Trk (about 10-fold) at the 674/675 sites, while SHP-2 partially dephosphorylates Trk (about 2-fold) at these sites. Tyrosine phosphorylation of the Y490 site also is decreased by SHP-1. […] Since SHP-2 expression stimulates sympathetic neuron death (FIG. 6), we conclude that SHP functions by associating with neurotrophin-activated Trk, dephosphorylating the receptor at sites crucial for maintaining Trk activity, and thereby suppressing neuronal survival.

[4] = system: TrkA; experiment: as above; assay type: cell-based; conditions: coexpressed in insect cells, anti-pTyr blot
Description: as §2, §3, §4, §5, §6

[5] = system: SHP-2; experiment: NGF-stimulated association of SHP-2 with tyrosine-phosphorylated proteins in SCG neurons; assay type: cell-based, rat; conditions: NGF-treated SCG cultures
Description: FIG. 4 is a Western blot showing that NGF stimulates an increased association of tyrosine-phosphorylated proteins with SHP-2 in SCG neurons. Lysates prepared from neurotrophin-treated SCGs were immunoprecipitated with anti-SHP-2 antibody and immunoblotted with anti-pTyr. Lanes 1 and 2: NGF-stimulated association of tyrosine-phosphorylated proteins with SHP-2. Lanes 3 and 4: NGF-stimulated increase in tyrosine phosphorylation of SCG proteins.
To determine the mechanism whereby the neutrotrophins stimulate the survival and growth of normal and injured neurons, we have asked whether the phosphoprotein phosphatases SHP-1 and SHP-2 play a role in the differentiation and survival of primary neurons, focusing our studies on cultured rat sympathetic cervical ganglion (SCG) and cortical neurons in order to determine the exact nature of this regulation.
Immunoprecipitations and immunoblotting were performed as previously described (Kaplan et al., Science, 252:554-558, 1991). […]

[6] = system: SHP-1; experiment: NGF-stimulated tyrosine phosphorylation of SHP-1 (immunoprecipitation with anti-SHP-1, anti-pTyr blot); assay type: cell-based; conditions: PC12 cells; increased at 10 minutes, still elevated at 30 minutes of neurotrophin treatment
Description: FIG. 2 is a Western blot showing that NGF stimulates tyrosine phosphorylation of SHP-1 in PC12 cells. Lysates prepared from cells treated with NGF were immunoprecipitated with anti-SHP-1 and probed with an anti-phosphotyrosine (pTyr) antibody (top panel).
(§7) Immunoprecipitations and immunoblotting were performed as previously described (Kaplan et al., Science, 252:554-558, 1991). Briefly, after two washes with ice-cold Tris-buffered saline, cells were lysed in 1 ml of 1% Nonidet P-40 (NP-40 lysis buffer (20 mM Tris [pH8.0], 137 mM NaCl, 0.5 mM EDTA, 10% glycerol, 1 mM phenylmethylsulphonyl fluoride, 0.15 U/ml aprotinin, 20 μM leupeptin, 1 mM sodium vanadate) at 4° C. for 20 min. Insoluble material was removed by centrifugation at 4° C. for 10 min at 10,000× g. Immunoprecipitations were performed for 4-6 hr at 4° C. Precipitates were collected with protein A-Sepharose, then washed three times with NP-40 lysis buffer and once with water. The immunoprecipitates were boiled in sample buffer (2% SDS, 100 mM dithiothreitol, 10% glycerol, 0.25% bromophenol blue) for 5 min and electrophoretically fractionated by SDS-PAGE. Protein blots were probed overnight at 4° C. with antibody. […]

[7] = system: SHP-2; experiment: NGF-stimulated association of SHP-2 with tyrosine-phosphorylated proteins in PC12 cells; assay type: cell-based; conditions: proteins of 50 to 125 kDa
Description: FIG. 3 is a Western blot showing that NGF stimulates the association of SHP-2 with tyrosine-phosphorylated proteins in PC12 cells. Lysates prepared from PC12 cells treated with NGF for the indicated times were immunoprecipitated with anti-SHP-2 and probed with anti-pTyr antibodies.
as §7

[8] = molecular target: T3, TrkB (Homo sapiens, UniProt Q16620); experiment: In vitro association of SHP with baculovirus-expressed TrkB; assay type: binding; conditions: autophosphorylated TrkB, insect cells
T3 construct: made in house; host or cells: Sf9 insect cells (recombinant baculovirus)
T3 sequence (Q16620 32-822, species assumed): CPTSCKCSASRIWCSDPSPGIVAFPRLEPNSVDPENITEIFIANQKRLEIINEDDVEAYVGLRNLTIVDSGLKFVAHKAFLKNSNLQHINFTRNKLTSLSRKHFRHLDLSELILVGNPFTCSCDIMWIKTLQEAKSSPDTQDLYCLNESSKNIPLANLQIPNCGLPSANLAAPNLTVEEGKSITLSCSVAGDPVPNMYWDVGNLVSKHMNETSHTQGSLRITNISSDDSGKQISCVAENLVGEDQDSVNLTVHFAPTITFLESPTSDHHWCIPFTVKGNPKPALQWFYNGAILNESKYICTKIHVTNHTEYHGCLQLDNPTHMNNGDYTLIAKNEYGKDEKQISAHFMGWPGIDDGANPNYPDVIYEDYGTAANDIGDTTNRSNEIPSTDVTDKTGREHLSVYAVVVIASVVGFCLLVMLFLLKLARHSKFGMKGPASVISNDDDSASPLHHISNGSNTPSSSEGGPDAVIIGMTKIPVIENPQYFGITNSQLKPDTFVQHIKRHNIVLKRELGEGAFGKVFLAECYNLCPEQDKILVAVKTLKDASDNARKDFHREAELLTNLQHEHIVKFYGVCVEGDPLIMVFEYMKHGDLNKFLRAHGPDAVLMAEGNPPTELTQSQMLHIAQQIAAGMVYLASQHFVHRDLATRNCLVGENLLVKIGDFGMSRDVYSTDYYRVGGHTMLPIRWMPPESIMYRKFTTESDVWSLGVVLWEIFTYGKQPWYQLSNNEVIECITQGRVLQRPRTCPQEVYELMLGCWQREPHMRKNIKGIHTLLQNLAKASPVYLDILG
Description: as §1
(§8) The in vitro association assay using baculovirus-expressed proteins was performed as described (Kaplan et al., supra). Briefly, Sf9 cells (2×10^6) were infected, harvested, and lysed in NP-40 lysis buffer. Trk proteins were immunoprecipitated with anti-Trk (203) antibody, and the immunoprecipitates were washed once with lysis buffer containing 1% deoxycholate and 0.1% SDS (RIPA), and three times with 50 mM Tris (pH 7.4). Trks then were activated (i.e. autophosphorylated) by incubation with 50 mM Tris (pH 7.4), 5 mM Mn Cl2, 1 mM ATP and 200 μM orthovanadate. Trk proteins then were washed twice with NP40 lysis buffer and were resuspended in 1 ml of PC12 cell lysate. The immunoprecipitated, activated Trk complexes were incubated with the cell lysate for 3 hr at 4° C., and then washed three times with NP-40 lysis buffer and once with 10 mM Tris (pH 7.4) before immunoblot analysis.
(§9) To investigate the mechanism whereby SHP inhibits NGF-induced signaling responses, we first asked whether the SHPs bound to Trk. […]

[9] = molecular target: T4, TrkC (Homo sapiens, UniProt Q16288); experiment: In vitro association of SHP with baculovirus-expressed TrkC; assay type: binding; conditions: autophosphorylated TrkC, insect cells
T4 construct: made in house; host or cells: Sf9 insect cells (recombinant baculovirus)
T4 sequence (Q16288 32-839, species assumed): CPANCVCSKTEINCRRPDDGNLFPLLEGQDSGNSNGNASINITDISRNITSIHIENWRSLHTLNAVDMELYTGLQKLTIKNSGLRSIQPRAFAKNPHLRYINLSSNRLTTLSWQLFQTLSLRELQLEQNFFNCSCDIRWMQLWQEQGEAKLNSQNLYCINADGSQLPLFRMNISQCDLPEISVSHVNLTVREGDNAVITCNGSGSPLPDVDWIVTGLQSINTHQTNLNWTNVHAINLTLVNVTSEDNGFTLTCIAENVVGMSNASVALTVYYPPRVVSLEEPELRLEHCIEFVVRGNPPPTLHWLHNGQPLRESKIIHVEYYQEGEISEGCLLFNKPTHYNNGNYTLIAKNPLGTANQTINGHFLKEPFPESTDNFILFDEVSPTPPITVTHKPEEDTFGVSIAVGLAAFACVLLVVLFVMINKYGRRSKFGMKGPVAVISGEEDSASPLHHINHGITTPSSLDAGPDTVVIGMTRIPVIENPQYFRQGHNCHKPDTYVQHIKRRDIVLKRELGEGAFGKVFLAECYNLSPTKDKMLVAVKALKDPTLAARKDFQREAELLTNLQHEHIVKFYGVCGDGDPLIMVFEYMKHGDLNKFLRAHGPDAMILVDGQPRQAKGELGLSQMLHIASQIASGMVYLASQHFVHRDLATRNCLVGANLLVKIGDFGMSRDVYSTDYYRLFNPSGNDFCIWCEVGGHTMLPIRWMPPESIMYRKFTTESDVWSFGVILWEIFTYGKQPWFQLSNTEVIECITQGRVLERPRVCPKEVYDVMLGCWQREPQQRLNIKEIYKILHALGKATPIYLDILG
Description: as §1, §8, §9

T1 sequence (P04629 33-790 isoform P04629-2): as the sequence (P04629 33-790 isoform P04629-2 limits assumed) above

Row | Substance | binding to activated Trk [1] | dephosphorylation of Trk in vitro [2] | dephosphorylation of Trk at the 674/675 sites [3] | dephosphorylation of Trks, wild-type and mutated at tyrosines 490 and 785 [4] | association of SHP-2 with tyrosine phosphorylated proteins [5] | tyrosine phosphorylation of SHP-1 [6] | association of SHP-2 with tyrosine phosphorylated proteins [7] | binding to activated Trk [8] | binding to activated Trk [9] | tyrosine phosphorylation of the Y490 site ([3]; phospho-specific anti-Trk antibody)
1 | SHP-2: nontransmembrane protein-tyrosine phosphatase containing SH2 domains, GenBank Accession Number L03535 | unable to bind to Trk | approximately 5 fold | about 2 fold | about 2 fold | – | – | – | – | – | –
2 | NGF: prototypical neurotrophin, Nerve Growth Factor, obtained from Peprotech | – | – | – | – | SHP-2 could be seen to associate with at least five tyrosine phosphorylated proteins | stimulates an increase in the tyrosine phosphorylation of SHP-1 | stimulates the association of SHP-2 with a number of tyrosine phosphorylated proteins | – | – | –
3 | SHP-1: nontransmembrane protein-tyrosine phosphatase containing SH2 domains, GenBank Accession Number M77273 | binds to activated (i.e. autophosphorylated) TrkA, TrkB and TrkC | approximately 5 fold | about 10 fold | about 8 fold | – | – | – | binds to activated (i.e. autophosphorylated) TrkA, TrkB and TrkC | binds to activated (i.e. autophosphorylated) TrkA, TrkB and TrkC | decreased

From patent US20020110800A1, “Use of SHP-1 and SHP-2 to detect compounds involved in neuronal survival” (McGill University, priority 1997, published 2002)
